From paper PMC8307404, “Crystal Structure-Guided Design of Bisubstrate Inhibitors and Photoluminescent Probes for Protein Kinases of the PIM Family” (Molecules, 2021)
Square brackets hold non-standard residues; d marks the D form. Peptide text beside a SMILES is read from it. * marks the point of attachment. X3 = O=C(CCCCCNCc1nc2c(sc3cc(Br)cnc32)c(=O)[nH]1)*

Legend:
Assay in all cases: Kinase profiling (radiometric filter-binding)
Type in all cases: biochemical
BRK = BRK (Homo sapiens, UniProt Q13882); settings: 1 µM inhibitor, read-out: Residual activity, %
Procedure, shortened: (§1)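 Single-point selectivity screen at 1 µM total inhibitor concentration across a panel of 139 or 140 human PKs, using radioactive filter-binding detection with ATP near or below KM; data are % activity remaining versus untreated control.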

CDK9-Cyclin T1 = CDK9-Cyclin T1 (Homo sapiens, UniProt P50750); settings: CDK9-Cyclin T1, 1 µM inhibitor; read-out: Residual activity, %
Procedure, shortened: as §1

CK1δ = CK1δ (Homo sapiens, UniProt P48730); settings: 1 µM inhibitor, read-out: Residual activity, %
Procedure, shortened: as §1

EF2K = EF2K (Homo sapiens, UniProt O00418); settings: 1 µM inhibitor, read-out: Residual activity, %
Procedure, shortened: as §1

IRAK4 = target: T1, IRAK4 (Homo sapiens, UniProt Q9NWZ3); settings: IRAK4, 1 µM inhibitor; read-out: Residual activity, %
T1 sequence (Q9NWZ3 1-460): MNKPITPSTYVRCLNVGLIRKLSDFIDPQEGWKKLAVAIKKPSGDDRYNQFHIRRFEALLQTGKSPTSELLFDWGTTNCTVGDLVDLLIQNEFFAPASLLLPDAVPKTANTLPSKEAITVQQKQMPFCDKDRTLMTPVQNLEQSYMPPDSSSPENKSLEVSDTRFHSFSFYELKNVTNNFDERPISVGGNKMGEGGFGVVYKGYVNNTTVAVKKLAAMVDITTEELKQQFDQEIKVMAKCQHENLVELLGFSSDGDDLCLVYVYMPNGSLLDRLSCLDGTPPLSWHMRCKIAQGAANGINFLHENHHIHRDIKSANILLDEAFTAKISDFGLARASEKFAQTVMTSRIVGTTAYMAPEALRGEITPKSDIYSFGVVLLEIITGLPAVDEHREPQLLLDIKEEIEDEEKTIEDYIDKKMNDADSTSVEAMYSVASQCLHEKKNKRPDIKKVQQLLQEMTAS
Procedure, shortened: as §1

JNK2 = JNK2 (Homo sapiens, UniProt P45984); settings: JNK2, 1 µM inhibitor; read-out: Residual activity, %
Procedure, shortened: as §1

TESK1 = TESK1 (Homo sapiens, UniProt Q15569); settings: TESK1, 1 µM inhibitor; read-out: Residual activity, %
Procedure, shortened: as §1

ULK1 = target: T2, ULK1 (Homo sapiens, UniProt O75385); settings: ULK1, 1 µM inhibitor; read-out: Residual activity, %
T2 sequence (O75385 1-1050): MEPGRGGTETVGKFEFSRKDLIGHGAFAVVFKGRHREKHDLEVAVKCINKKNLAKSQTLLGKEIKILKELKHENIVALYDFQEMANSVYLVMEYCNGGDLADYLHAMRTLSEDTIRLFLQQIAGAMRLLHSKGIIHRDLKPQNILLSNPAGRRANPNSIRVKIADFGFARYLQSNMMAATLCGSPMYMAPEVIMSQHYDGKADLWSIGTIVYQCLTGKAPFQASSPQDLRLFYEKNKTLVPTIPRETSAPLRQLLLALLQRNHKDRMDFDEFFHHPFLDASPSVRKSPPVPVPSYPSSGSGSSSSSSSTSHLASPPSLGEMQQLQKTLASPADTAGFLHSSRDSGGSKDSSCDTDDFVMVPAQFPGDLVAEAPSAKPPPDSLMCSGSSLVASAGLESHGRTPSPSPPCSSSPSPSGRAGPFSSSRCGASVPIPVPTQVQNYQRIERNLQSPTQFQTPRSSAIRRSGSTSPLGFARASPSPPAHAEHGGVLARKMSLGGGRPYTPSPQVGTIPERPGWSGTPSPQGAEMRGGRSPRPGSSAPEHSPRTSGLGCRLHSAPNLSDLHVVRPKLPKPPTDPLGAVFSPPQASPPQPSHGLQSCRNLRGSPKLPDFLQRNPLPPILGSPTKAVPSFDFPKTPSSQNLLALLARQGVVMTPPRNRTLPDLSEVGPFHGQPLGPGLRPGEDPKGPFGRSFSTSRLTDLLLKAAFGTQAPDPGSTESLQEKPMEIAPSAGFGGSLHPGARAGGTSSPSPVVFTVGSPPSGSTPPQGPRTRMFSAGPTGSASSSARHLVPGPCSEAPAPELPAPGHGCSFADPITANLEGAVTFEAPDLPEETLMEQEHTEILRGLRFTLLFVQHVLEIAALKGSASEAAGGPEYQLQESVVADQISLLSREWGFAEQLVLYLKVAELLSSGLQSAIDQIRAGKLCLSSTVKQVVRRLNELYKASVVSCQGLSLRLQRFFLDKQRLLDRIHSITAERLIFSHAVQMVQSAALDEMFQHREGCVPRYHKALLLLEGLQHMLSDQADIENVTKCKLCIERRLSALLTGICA
Procedure, shortened: as §1

WNK1 = WNK1 (Homo sapiens, UniProt Q9H4A3); settings: WNK1, 1 µM inhibitor; read-out: Residual activity, %
Procedure, shortened: as §1

Sequence of CDK9-Cyclin T1 (P50750 whole entry): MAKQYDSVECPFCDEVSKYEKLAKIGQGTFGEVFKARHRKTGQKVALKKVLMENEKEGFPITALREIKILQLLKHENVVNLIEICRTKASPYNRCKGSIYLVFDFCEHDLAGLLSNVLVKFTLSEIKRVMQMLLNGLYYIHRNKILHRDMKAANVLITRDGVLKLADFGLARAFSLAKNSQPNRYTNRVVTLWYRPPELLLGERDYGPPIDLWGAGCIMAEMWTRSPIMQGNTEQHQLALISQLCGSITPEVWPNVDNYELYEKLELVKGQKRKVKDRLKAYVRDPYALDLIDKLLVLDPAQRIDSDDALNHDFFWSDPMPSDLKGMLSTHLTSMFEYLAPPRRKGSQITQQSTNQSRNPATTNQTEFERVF
Sequence of CDK9-Cyclin T1 (O60563 whole entry partner): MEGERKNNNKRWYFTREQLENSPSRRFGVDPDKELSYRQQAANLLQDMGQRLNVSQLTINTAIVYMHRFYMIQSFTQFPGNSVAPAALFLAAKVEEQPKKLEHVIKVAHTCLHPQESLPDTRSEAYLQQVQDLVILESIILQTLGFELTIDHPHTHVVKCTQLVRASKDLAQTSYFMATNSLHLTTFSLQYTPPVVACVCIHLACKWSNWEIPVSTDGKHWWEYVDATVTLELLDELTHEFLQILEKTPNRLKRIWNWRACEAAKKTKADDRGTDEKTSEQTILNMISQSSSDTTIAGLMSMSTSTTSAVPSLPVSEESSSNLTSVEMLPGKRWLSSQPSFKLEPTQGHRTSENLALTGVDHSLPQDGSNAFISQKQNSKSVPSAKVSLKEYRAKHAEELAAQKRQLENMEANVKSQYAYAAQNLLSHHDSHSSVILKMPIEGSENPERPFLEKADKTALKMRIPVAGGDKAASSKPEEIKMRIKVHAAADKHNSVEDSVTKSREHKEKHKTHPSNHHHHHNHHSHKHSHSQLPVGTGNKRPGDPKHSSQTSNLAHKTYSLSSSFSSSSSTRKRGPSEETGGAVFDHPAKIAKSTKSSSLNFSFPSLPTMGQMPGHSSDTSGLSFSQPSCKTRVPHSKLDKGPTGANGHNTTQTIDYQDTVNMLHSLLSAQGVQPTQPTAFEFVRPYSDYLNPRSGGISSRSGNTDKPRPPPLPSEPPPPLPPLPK
Sequence of JNK2 (P45984 whole entry): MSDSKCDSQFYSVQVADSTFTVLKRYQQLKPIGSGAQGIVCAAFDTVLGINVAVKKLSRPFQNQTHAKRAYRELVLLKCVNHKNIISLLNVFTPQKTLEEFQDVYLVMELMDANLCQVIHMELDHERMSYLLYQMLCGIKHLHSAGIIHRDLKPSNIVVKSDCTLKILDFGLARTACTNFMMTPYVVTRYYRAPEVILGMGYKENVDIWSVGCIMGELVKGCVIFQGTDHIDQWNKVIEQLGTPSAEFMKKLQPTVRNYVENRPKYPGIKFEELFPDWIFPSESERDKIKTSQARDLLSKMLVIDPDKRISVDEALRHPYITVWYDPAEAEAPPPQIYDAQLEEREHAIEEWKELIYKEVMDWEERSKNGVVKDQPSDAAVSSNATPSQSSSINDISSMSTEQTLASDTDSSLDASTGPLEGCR
Sequence of BRK (Q13882 whole entry): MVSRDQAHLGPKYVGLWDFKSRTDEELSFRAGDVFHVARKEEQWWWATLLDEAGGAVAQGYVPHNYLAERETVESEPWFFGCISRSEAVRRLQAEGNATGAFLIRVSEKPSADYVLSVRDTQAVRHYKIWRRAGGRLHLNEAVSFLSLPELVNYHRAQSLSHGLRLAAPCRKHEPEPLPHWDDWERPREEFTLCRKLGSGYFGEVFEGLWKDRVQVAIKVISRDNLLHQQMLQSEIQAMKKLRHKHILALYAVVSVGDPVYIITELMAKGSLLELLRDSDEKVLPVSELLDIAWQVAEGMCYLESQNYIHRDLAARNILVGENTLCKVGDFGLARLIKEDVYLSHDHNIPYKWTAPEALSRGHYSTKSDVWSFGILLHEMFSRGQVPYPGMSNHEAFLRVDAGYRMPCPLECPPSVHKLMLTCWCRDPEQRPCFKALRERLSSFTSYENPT
Sequence of CK1δ (P48730 whole entry): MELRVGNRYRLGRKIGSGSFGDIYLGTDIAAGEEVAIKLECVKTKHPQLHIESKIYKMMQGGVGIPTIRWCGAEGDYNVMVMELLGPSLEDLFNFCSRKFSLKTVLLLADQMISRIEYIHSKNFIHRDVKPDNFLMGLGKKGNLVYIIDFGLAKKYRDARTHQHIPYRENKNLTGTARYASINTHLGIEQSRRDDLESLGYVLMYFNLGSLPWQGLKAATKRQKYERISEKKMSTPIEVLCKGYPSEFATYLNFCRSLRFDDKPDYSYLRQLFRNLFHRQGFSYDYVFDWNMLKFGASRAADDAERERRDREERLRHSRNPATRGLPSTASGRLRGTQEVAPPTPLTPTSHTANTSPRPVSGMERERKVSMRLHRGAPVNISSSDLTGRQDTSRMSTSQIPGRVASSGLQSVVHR
Sequence of TESK1 (Q15569 whole entry): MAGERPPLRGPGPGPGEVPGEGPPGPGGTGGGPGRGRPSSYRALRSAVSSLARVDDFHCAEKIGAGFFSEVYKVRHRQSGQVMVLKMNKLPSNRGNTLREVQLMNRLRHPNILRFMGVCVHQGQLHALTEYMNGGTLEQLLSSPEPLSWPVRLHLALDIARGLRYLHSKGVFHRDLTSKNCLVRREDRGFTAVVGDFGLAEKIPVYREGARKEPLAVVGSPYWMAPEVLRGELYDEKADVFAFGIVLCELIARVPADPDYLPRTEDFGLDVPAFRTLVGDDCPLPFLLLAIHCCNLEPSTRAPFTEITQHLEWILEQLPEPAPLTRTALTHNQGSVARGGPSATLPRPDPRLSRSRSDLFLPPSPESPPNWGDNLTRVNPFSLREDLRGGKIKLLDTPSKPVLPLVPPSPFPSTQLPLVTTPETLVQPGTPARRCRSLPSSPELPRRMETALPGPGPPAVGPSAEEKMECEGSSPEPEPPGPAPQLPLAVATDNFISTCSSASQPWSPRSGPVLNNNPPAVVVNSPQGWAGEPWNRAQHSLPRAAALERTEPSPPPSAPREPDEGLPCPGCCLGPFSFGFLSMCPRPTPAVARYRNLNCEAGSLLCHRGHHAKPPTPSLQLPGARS

Row | SMILES | remaining activity at 1 µM (BRK) [%] | remaining activity at 1 µM (CDK9-Cyclin T1) [%] | remaining activity at 1 µM (CK1δ) [%] | remaining activity at 1 µM (EF2K) [%] | remaining activity at 1 µM (IRAK4) [%] | remaining activity at 1 µM (JNK2) [%] | remaining activity at 1 µM (TESK1) [%] | remaining activity at 1 µM (ULK1) [%] | remaining activity at 1 µM (WNK1) [%]
1 | N=C(N)NCCC[C@@H](NC(=O)CCCCCNC(=O)Cn1cnc2c(I)c(I)c(I)c(I)c21)C(=O)N[C@H](CCCNC(=N)N)C(=O)N[C@H](CCCNC(=N)N)C(=O)N[C@H](CCCNC(=N)N)C(=O)N[C@H](CCCNC(=N)N)C(=O)N[C@H](CCCNC(=N)N)C(=O)N[C@H](CCCCN)C(N)=O [ARC-3125, TIBI-CH2-C(=O)-Ahx-(D-Arg)6-D-Lys-NH2] | 82 ± 41 | 55 ± 1 | 71 ± 4 | 103 ± 1 | 73 ± 2 | 123 ± 7 | 102 ± 3 | 89 ± 9 | 105 ± 33
2 | N=C(N)NCCC[C@@H](NC(=O)CCCCCNCc1nc2c(sc3cc(Br)cnc32)c(=O)[nH]1)C(=O)N[C@H](CCCNC(=N)N)C(=O)N[C@H](CCCNC(=N)N)C(=O)N[C@H](CCCNC(=N)N)C(=O)N[C@H](CCCNC(=N)N)C(=O)N[C@H](CCCNC(=N)N)C(=O)N[C@H](CCCCN)C(N)=O [ARC-3126, BPTP-Ahx-(D-Arg)6-D-Lys-NH2] (X3-[dR][dR][dR][dR][dR][dR][dK]-NH2) | 81 ± 4 | 104 ± 3 | 99 ± 1 | 85 ± 10 | 97 ± 2 | 38 ± 13 | 99 ± 14 | 119 ± 6 | 107 ± 34
3 | N=C(N)NCCC[C@@H](NC(=O)CNC(=O)[C@@H](CCCNC(=N)N)NC(=O)[C@@H](CCCNC(=N)N)NC(=O)CCCCCCCNCc1nc2c(sc3cc(Br)cnc32)c(=O)[nH]1)C(=O)N[C@H](CCCCN)C(N)=O [Compound 1, BPTP-Aoc-(D-Arg)2-Gly-D-Arg-D-Lys-NH2] | 126 ± 8 | 110 ± 10 | 104 ± 4 | 104 ± 2 | 110 ± 3 | 107 ± 1 | 111 ± 11 | 107 ± 5 | 96 ± 4
4 | N=C(N)NCCC[C@@H](NC(=O)CNC(=O)[C@@H](CCCNC(=N)N)NC(=O)[C@@H](CCCNC(=N)N)NC(=O)CCCCCCCNCc1nc2c(sc3ccc(Br)cc32)c(=O)[nH]1)C(=O)N[C@H](CCCCN)C(N)=O [Compound 2, BBTP-Aoc-(D-Arg)2-Gly-D-Arg-D-Lys-NH2] | 114 ± 11 | 101 ± 20 | 99 ± 3 | 98 ± 7 | 108 ± 8 | 91 ± 7 | 106 ± 13 | 99 ± 6 | 93 ± 1
5 | N=C(N)NCCC[C@@H](NC(=O)CNC(=O)[C@@H](CCCNC(=N)N)NC(=O)[C@@H](CCCNC(=N)N)NC(=O)Cn1cc(CNCc2nc3c(sc4ccc(Br)cc43)c(=O)[nH]2)nn1)C(=O)N[C@H](CCCCN)C(N)=O [Compound 3, BBTP-Amt-(D-Arg)2-Gly-D-Arg-D-Lys-NH2] | 114 ± 13 | 90 ± 18 | 88 ± 12 | 102 ± 3 | 107 ± 7 | 129 ± 21 | 105 ± 1 | 108 ± 11 | 104 ± 6
